B1: Hairpin Ribozyme (parent)
chain: GUCCUCUUUCACGUGCGCGUGAAAGAGAGAAGUGAACCAGAGAAACACACGUUGUGGUAUAUUACCUGGUA

In the data set the parent is B1. In words: self-cleavage, relative activity (ratio to wild type); higher = more cleavage; co-transcriptional.
On to G15C G27C, for which the self-cleavage turned out to be 0.204. With C16A U33C the figure was 0.2; with G15C G32U, 0.113; with G15C G32C, 0.0609. Then G15C G32A, with 0.263; and G17A G21U, with 0.901; and C16U G40C, with 0.11. Then C16U G40A, with 0.276.

As to G15U A45U, the self-cleavage is 0.221.

Regarding C16G G27U, the self-cleavage was determined as 0.106. Then C16G G27A, with 0.37. On to C16G G27C, for which the self-cleavage worked out at 0.222. Then C16U A59G, with 0.109; and C16U A59C, with 0.17; and G15C G17A, with 1.03. With G15C G17C the figure was 0.668. Then C16U A30C, with 0.0996; and C16A A28U, with 0.611; and C16A A28C, with 0.569. As for C16A A28G, the self-cleavage is 0.988. Then C16A A31U, with 0.0142; and C16A U70G, with 0.461. With G17C G51A the figure was 0.718; with G17C G51C, 0.668. With G17A G68U, the self-cleavage is 0.243. Then G17A A44G, with 0.233. Regarding G17A A44C, the self-cleavage was 0.119. Turning to C16U G69C, the self-cleavage was 0.396. As for C16G U63C, the self-cleavage amounted to 0.204. In the case of G17A A31G, the self-cleavage was 0.694. In the case of G17A A31U, the self-cleavage came to 0.105. With C16U C38U the figure was 0.443; with C16U C38G, 0.206. For the variant G17A C18A, the self-cleavage stood at 1.2. For the variant C16A A35U, the self-cleavage worked out at 0.789. With C16A A35C the figure was 1.26; with G15U G68C, 0.137; with C16U A49U, 0.281. Turning to G15C G40A, the self-cleavage came to 0.315.

Consider G17C A59U, for which the self-cleavage came out at 0.122. Take C16G A49U: the self-cleavage came out at 0.221. On to C16A A45U, for which the self-cleavage stood at 0.176.

Turning to C16U G57A, the self-cleavage was determined as 0.272. As for C16U G19C, the self-cleavage worked out at 0.867.

For the variant G15C G42A, the self-cleavage turned out to be 0.0806. With G17A A43G the figure was 0.0835. Then C16A A26G, with 0.911; and C16A G69A, with 0.308. With G17C C46U the figure was 0.113; with G15U A59C, 0.11; with G17C G42U, 0.134.

With G17C G42C, the self-cleavage was found to be 0.306.

Take C16G U58C: the self-cleavage amounted to 1.06. Then G15U A71C, with 1.53; and C16G U52C, with 0.718. As to C16G U52G, the self-cleavage came to 0.443. Then G17C A26G, with 0.709; and G17C A26U, with 0.414. Then C16G U20C, with 0.868. With G15U A39U the figure was 0.544. With G17C C37U, the self-cleavage came out at 0.542.

Consider G17C G40A, for which the self-cleavage came to 0.253. Then G17C G40C, with 0.168. As to C16U G51A, the self-cleavage worked out at 1.06.

G15U U33A: the self-cleavage is 0.248. With G15U U33G the figure was 0.18; with G17A G69U, 0.203; with G17A G51U, 1.06.

Consider G15U G25C, for which the self-cleavage is 0.705. Then G17C A36U, with 0.356; and G17C G25A, with 0.417. Then G17C G25U, with 0.505; and C16A C18A, with 1.14; and G15U A44C, with 0.145. C16A C66G: the self-cleavage came out at 0.249. Then C16A A47G, with 0.197. With G15C G29A the figure was 0.148; with G15U A41G, 0.943. Then G15C U20G, with 0.828; and G15C U20C, with 0.997. On to C16A G56A, for which the self-cleavage was determined as 0.0316. With G17A G54U the figure was 0.667; with G17A G54C, 0.429; with C16G G29C, 0.141. For the variant C16A G25U, the self-cleavage amounted to 0.589. In the case of C16A G34C, the self-cleavage was 1.44. Then G17A G57A, with 0.228; and G17A G57U, with 0.301; and C16U A64U, with 0.162. For the variant G15U C46G, the self-cleavage turned out to be 0.167. With G17C A43G the figure was 0.131; with G17C A43C, 0.118. Consider G17A U20C, for which the self-cleavage is 1.13.

For the variant G17C G29C, the self-cleavage was found to be 0.113.

As to C16G A28C, the self-cleavage came out at 0.289. Then C16G G25C, with 0.302; and C16G G25U, with 0.547; and C16G C46U, with 0.0715. Then G15U U62A, with 0.2; and G15U U62C, with 0.461; and G15U U62G, with 0.189.

As to G17C G21A, the self-cleavage was 0.618. With G17C G21C the figure was 0.494; with G17A A26U, 0.768; with C16A C48U, 0.0945. With G17C A28G the figure was 0.957. With G17C A28U the figure was 0.28. Take G17C A28C: the self-cleavage is 0.347. Then C16A C38U, with 0.577; and C16G A24U, with 0.69; and C16G A24C, with 0.688.

For the variant C16A A61U, the self-cleavage turned out to be 0.226. Then G17A U33G, with 0.0712. For the variant G17A U33A, the self-cleavage worked out at 0.12. For G17A G40C, the self-cleavage is 0.153. As for G15C U63C, the self-cleavage turned out to be 0.13. With C16A A64U the figure was 0.14.

Consider G15U A31C, for which the self-cleavage is 0.118. With G17A C66G the figure was 0.268. Then G17A C37U, with 0.463; and C16U A43G, with 0.0631; and C16U A43U, with 0.134.

Consider G17C A49C, for which the self-cleavage is 0.146. In the case of G15U A28C, the self-cleavage is 0.619. With G15U A28G the figure was 1.16; with G15C G51C, 1.23; with G15C G51A, 0.796.

For the variant C16U A61C, the self-cleavage was determined as 0.254.

On to G17A G27C, for which the self-cleavage is 0.074. With G17C G32U the figure was 0.0811. Then G17C G32A, with 0.131. Then C16A A59C, with 0.213; and G17C A64C, with 0.186. In the case of C16G G34A, the self-cleavage came to 0.883. Then C16G G34U, with 1.34; and C16A A23U, with 0.727. Then G17C A44G, with 0.121; and G17C A44C, with 0.136. In the case of G17A U58C, the self-cleavage turned out to be 0.869. With G17A U58G, the self-cleavage amounted to 0.78. Turning to G15U U52A, the self-cleavage was 0.863. With G15U U52G the figure was 0.94; with G17A C50A, 0.21. With C16U U20G the figure was 1.01. Then C16U G25A, with 0.668; and G15C G68U, with 0.235. Consider C16A A44C, for which the self-cleavage was 0.229. Then C16G U70G, with 0.508.

Consider C16U A35U, for which the self-cleavage turned out to be 0.916. On to G15U C66A, for which the self-cleavage came out at 0.367. Then C16A G42U, with 0.276; and G17C A22U, with 0.644. With C16A U58A the figure was 0.597.

On to G17A G32U, for which the self-cleavage stood at 0.123.

Consider G17A G32C, for which the self-cleavage stood at 0.0599.

Turning to G17C A35G, the self-cleavage is 0.801. Then G17C A35C, with 1.04. With G15C U53G the figure was 0.695.

G15C U53C: the self-cleavage was 1.02. With G15C G34U the figure was 0.975; with G15U U58C, 0.889; with G15C U70C, 0.965. Then G15C U70G, with 0.946; and G15C G21C, with 0.897; and G15C G21U, with 1.06.

Regarding C16A A41U, the self-cleavage was 1.3. With C16A A41G the figure was 0.818.

Values taken from the RNAGym collection of RNA variant scans (doi:10.7554/elife.80360).
